No end group written: not given here. *: point of attachment. FITC‑N3 = fluorescein azide; Pent4ynoyl = C#CCCC(=O)*; AEEA = NCCOCCOCC(=O)O
B1: hRpn2 (940–953) (peptide)
chain: QEPEPPEPFEYIDD
notes: The author contributions say that peptides were synthesized for the DSF experiment, so the DSF sample may be a synthetic peptide of the same limits; also called hRpn2 peptide; hRpn2 fragment; source: E. coli BL21(DE3) pLysS, purified (Glutathione S-sepharose 4B, PreScission cleavage, Superdex75); not shown: GST, N-terminal, cleaved
B2: FITC-hRpn2 (940–953) (peptide)
peptide: {FITC‑N3-Pent4ynoyl-AEEA}-QEPEPPEPFEYIDD
notes: also called FITC-labelled hRpn2 probe; source: synthetic peptide (Fmoc solid-phase synthesis, click coupling to FITC-N3, HPLC purified)
B3: hRpn2 (944–953) (peptide)
peptide: PPEPFEYIDD
notes: source: synthetic peptide (Fmoc chemistry on Wang resin, HPLC purified)

Legend:
[1] = target: T1, hRpn13 (1–150), which includes the Pru domain (human, UniProt Q16186 1-150); assay: ITC; 25 °C; 200 μM hRpn2 peptide injected into 20 μM or 18 μM hRpn13 Pru in the cell; 20 mM sodium phosphate, 50 mM NaCl, 10 mM βME, pH 7.0; one-site fit; settings: both partners purified
T1 construct: hRpn13/Adrm1, human, residues M1-L150 (Pru domain; N-terminal 19 and C-terminal 20 residues randomly coiled); Isotope-labelled (15N, 13C) in some NMR samples; also called hRpn13 Pru; hRpn13 Pru (1–150); not shown: His tag, N-terminal, cleaved
T1 sequence (Q16186 1-150): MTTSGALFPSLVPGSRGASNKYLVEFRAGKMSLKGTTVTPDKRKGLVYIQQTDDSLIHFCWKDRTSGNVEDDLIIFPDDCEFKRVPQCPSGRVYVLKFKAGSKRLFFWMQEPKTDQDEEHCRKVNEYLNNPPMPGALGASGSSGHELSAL

full-length hRpn13 = target: T2, full-length hRpn13 (human, UniProt Q16186 1-407); assay: fluorescence polarisation; 10 nM FITC-hRpn2 (940–953) with serially diluted full-length hRpn13; 20 mM sodium phosphate, 50 mM NaCl, pH 6.5; room temperature, 30 min; Hill slope model; also with 100 μM RA190 or 2% DMSO; settings: both partners purified
T2 construct: hRpn13/Adrm1, human, full-length protein (Pru and DEUBAD domains); The preparation of the full-length protein is not described; it was not held on Talon resin by itself in the pull-down, so it probably carried no His tag; also called hRpn13 full-length protein; Adrm1; source: purified recombinant protein
T2 sequence (Q16186 whole entry, the tested form may be a part): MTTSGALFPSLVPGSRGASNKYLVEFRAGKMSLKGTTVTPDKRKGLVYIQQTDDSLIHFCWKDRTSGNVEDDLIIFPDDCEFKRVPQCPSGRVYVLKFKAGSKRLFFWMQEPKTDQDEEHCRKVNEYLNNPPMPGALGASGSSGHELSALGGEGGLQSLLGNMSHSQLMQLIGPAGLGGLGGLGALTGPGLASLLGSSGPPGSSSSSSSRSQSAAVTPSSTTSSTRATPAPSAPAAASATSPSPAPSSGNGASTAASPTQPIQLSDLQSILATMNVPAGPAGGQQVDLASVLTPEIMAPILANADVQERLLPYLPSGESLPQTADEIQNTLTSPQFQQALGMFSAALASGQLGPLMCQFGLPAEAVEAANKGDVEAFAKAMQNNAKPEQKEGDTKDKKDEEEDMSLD

Binder	Kd [1]	Kd (full-length hRpn13)
B1	27 ± 10 nM	
B2		14.7 nM
B3	1960 ± 220 nM	

Source: publication PMC5494190, “Structure of the Rpn13-Rpn2 complex provides insights for Rpn13 and Uch37 as anticancer targets” (Nature Communications, 2017)
